Experimental data: PMC11055865, “Mechanism of DNA unwinding by MCM8-9 in complex with HROB” (Nature Communications, 2023)

B1: HROB-L405D (natural protein, human, UniProt Q8N3J3-4 1-646, looked up)
chain: MACSLQKLFAVEEEFEDEDFLSAVEDAENRFTGSLPVNAGRLRPVSSRPQETVQAQSSRLLLLHPTAPSEALGLPDLDLCLPASSTPSADSRPSCIGAAPLRPVSTSSSWIGNQRRVTVTEVLREPARPQSSALHPLLTFESQQQQVGGFEGPEQDEFDKVLASMELEEPGMELECGVSSEAIPILPAQQREGSVLAKKARVVDLSGSCQKGPVPAIHKAGIMSAQDESLDPVIQCRTPRPPLRPGAVGHLPVPTALTVPTQQLHWEVCPQRSPVQALQPLQAARGTIQSSPQNRFPCQPFQSPSSWLSGKAHLPRPRTPNSSCSTPSRTSSGLFPRIPLQPQAPVSSIGSPVGTPKGPQGALQTPIVTNHLVQLVTAASRTPQQPTHPSTRAKTRRFPGPAGIDPHQQSGRSLEDIMVSAPQTPTHGALAKFQTEIVASSQASVEEDFGRGPWLTMKSTLGLDERDPSCFLCTYSIVMVLRKAALKQLPRNKVPNMAVMIKSLTRSTMDASVVFKDPTGEMQGTVHRLLLETCQNELKPGSVLLLKQIGVFSPSLRNHYLNVTPNNLVHIYSPDSGDGSFLKPSQPFPKDSGSFQHDVAAKPEEGFRTAQNLEAEASPEEELPEADDLDGLLSELPEDFFCGTSS
notes: HROB, human; numbers count on: isoform 1 (Q8N3J3-1); not shown: FLAG, C-terminal, kept
B2: MCM8-9 complex (FLAG-tagged MCM8 and MBP-tagged MCM9), wild type (complex)
chain 1: MNGEYRGRGFGRGRFQSWKRGRGGGNFSGKWREREHRPDLSKTTGKRTSEQTPQFLLSTKTPQSMQSTLDRFIPYKGWKLYFSEVYSDSSPLIEKIQAFEKFFTRHIDLYDKDEIERKGSILVDFKELTEGGEVTNLIPDIATELRDAPEKTLACMGLAIHQVLTKDLERHAAELQAQEGLSNDGETMVNVPHIHARVYNYEPLTQLKNVRANYYGKYIALRGTVVRVSNIKPLCTKMAFLCAACGEIQSFPLPDGKYSLPTKCPVPVCRGRSFTALRSSPLTVTMDWQSIKIQELMSDDQREAGRIPRTIECELVHDLVDSCVPGDTVTITGIVKVSNAEEGSRNKNDKCMFLLYIEANSISNSKGQKTKSSEDGCKHGMLMEFSLKDLYAIQEIQAEENLFKLIVNSLCPVIFGHELVKAGLALALFGGSQKYADDKNRIPIRGDPHILVVGDPGLGKSQMLQAACNVAPRGVYVCGNTTTTSGLTVTLSKDSSSGDFALEAGALVLGDQGICGIDEFDKMGNQHQALLEAMEQQSISLAKAGVVCSLPARTSIIAAANPVGGHYNKAKTVSENLKMGSALLSRFDLVFILLDTPNEHHDHLLSEHVIAIRAGKQRTISSATVARMNSQDSNTSVLEVVSEKPLSERLKVVPGETIDPIPHQLLRKYIGYARQYVYPRLSTEAARVLQDFYLELRKQSQRLNSSPITTRQLESLIRLTEARARLELREEATKEDAEDIVEIMKYSMLGTYSDEFGNLDFERSQHGSGMSNRSTAKRFISALNNVAERTYNNIFQFHQLRQIAKELNIQVADFENFIGSLNDQGYLLKKGPKVYQLQTM
chain 2: not shown
notes: MCM8, human; vector pFB-FLAG-MCM8; MCM9, human; vector pFB-MBP-MCM9; Major species is a heterodimer; tetramers and hexamers are also present; also called MCM8-9 heterodimer; dimer-rich MCM8-9; source: MBP tag not cleaved; for the amylose pull-down captured from Sf9 lysate on amylose resin and washed; not shown: FLAG, N-terminal, kept; MBP, N-terminal, kept

Experiments:
[1] = biological target: B2; assay: pull-down; MBP-MCM9/FLAG-MCM8 (or pMCM8-9, with or without λ-phosphatase treatment on the resin) immobilized on amylose resin from Sf9 lysate and washed; 1 µg wild type or mutant HROB in 50 mM Tris-HCl pH 7.5, 3 mM EDTA, 100 mM NaCl, 1 h at 4 °C; maltose elution, western blotting; conditions: both partners purified
[2] = biological target: the molecule itself; assay: mass photometry; protein alone in solution, no DNA; 50-200 nM final protein in 50 mM Tris-HCl pH 7.5, 100 mM NaCl; oligomeric state of MCM8-9 unchanged with ATP-γ-S

Row | binding result [1] | Binder | binding result [2]
1 | binds | B1 | 
2 |  | B2 | binds
